Test results as given in patent US12404493B2, “Methods for the re-derivation of diverse pluripotent stem cell-derived brown fat cells” (AgeX Therapeutics, Inc., priority 2015, dated 2025).

Test system: hES cell-derived clonal embryonic progenitor cell lines
Experiment: Differentiation of clonal embryonic progenitor cell lines into BAT cells in HyStem beads, marker expression by Illumina microarray / qPCR
Type: cell-based, human
Details: 10 ng/mL BMP4 or 100 ng/mL BMP7 added to rosiglitazone/T3/CL-316,243 differentiation in HyStem beads
Protocol: Then, HyStem (1 ml, 1% w/v) is mixed with Gelin-S (1 ml, 1% w/v) immediately before use. […] Following complete gelation (20 min), Differentiation Medium is added to each well. […] Plates were then placed in a humidified incubator at 37° C. with ambient O2 and 10% CO2, and the cells were fed three-times weekly.
Total RNA was extracted directly from cells growing in 6-well plates or 10 cm tissue culture dishes using Qiagen RNeasy mini kits according to the manufacturer's instructions. RNA concentrations were measured using a Beckman DU530 or Nanodrop spectrophotometer and RNA quality was determined by denaturing agarose gel electrophoresis or using an Agilent 2100 bioanalyzer. […] Values of less than 120 relative fluorescence units (RFUs) were considered as nonspecific background signal.

| Molecule | cell viability |
| --- | --- |
| BMP7: Bone Morphogenetic Protein 7, member of the TGFβ superfamily (protein, UniProt P18075 293-431, looked up) Bone morphogenetic protein 7: STGSKQRSQNRSKTPKNQEALRMANVAENSSSDQRQACKKHELYVSFRDLGWQDWIIAPEGYAAYYCEGECAFPLNSYMNATNHAIVQTLVHFINPETVPKPCCAPTQLNAISVLYFDDSSNVILKKYRNMVVRACGCH | greater levels of cell viability |
| BMP4: Bone Morphogenetic Protein 4, member of the TGFβ superfamily (protein, UniProt P12644 293-408, looked up) Bone morphogenetic protein 4: SPKHHSQRARKKNKNCRRHSLYVDFSDVGWNDWIVAPPGYQAFYCHGDCPFPLADHLNSTNHAIVQTLVNSVNSSIPKACCVPTELSAISMLYLDEYDKVVLKNYQEMVVEGCGCR | greater levels of cell viability |
